According to patent US20230398224A1 (Novartis, published 2023):
Positions of bridges follow the written chain, without caps; N, C: chain ends. Non-standard residues stand in square brackets, D forms with d. Groups on a side chain read outwards from the residue. int‑CC7 = mannose-6-phosphonate M6PR ligand; tri‑GalNAc ASGPR ligand = not defined here; Bip = N[C@@H](Cc1ccc(-c2ccccc2)cc1)C(=O)O; NMeF = CN[C@@H](Cc1ccccc1)C(=O)O; Tic = O=C(O)[C@@H]1Cc2ccccc2CN1; int‑CC6 = not defined here; NMeA = CN[C@@H](C)C(=O)O; Sar = CNCC(=O)O

T1: Purified FHR3 with C-terminal biotinylated Avitag (human, UniProt Q02985 19-330, biotin on the C-terminal Avitag)
T1 construct: Immobilised on a NeutrAvidin NLC chip for SPR; also called complement factor H-related protein 3; hFHR3; not shown: C-terminal biotinylated Avitag
T1 sequence (looked up): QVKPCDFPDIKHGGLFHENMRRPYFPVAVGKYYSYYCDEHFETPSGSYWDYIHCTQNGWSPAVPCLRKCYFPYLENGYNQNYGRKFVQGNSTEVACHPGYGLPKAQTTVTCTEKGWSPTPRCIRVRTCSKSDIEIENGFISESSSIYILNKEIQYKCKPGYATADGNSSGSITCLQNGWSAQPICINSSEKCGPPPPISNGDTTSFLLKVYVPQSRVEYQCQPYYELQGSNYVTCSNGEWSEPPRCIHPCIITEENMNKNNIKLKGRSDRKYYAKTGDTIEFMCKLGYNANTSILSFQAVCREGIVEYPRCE


Columns and labels:
[1] = biological target: T1, Purified FHR3 with C-terminal …; test: SPR, ProteOn XPR36; biotinylated FHR3 on NeutrAvidin NLC chip
Procedure: SPR was used to obtain the binding data for FHR3 receptor ligands compounds (C12), (C13), (C14), (C15) and (C16), either alone or as part of the bifunctional compounds (BFC13), (BFC14), (BFC15), (BFC16) and (BFC17), respectively.
(§1) SPR Binding experiments were performed on a Proteon XPR36 instrument (Bio-Rad Laboratories). Purified FHR3 with C-terminal biotinylated Avitag was used for the assay. Biotinylated FHR3 was incubated with fivefold molar excess of bifunctional compounds (BFC13), (BFC14), (BFC15), (BFC16) or (BFC17), or compounds (C12), (C13), (C14), (C15) or (C16), and immobilized onto a Neutravidin coated sensor chip. (NLC chip, Bio-Rad Laboratories, Inc). After conditioning the chip by injecting running buffer (20 mM Tris pH7.5, 300 mM NaCl, 25 mM CaCl₂, 2 mM betamercaptoethanol, 2% DMSO and 0.05% Tween-20) at a flow rate of 0.1 mL/min for 240 s, FHR3 was injected at a protein concentration of 0.02 mg/ml in running buffer with fivefold molar excess of bifunctional compound and a flow rate of 0.03 mL/min followed by 4 washes with running buffer with 1 μM of bifunctional compound (0.1 mL/min for 60 seconds each).

[2] = biological target: T2, M6PR; test: SPR, no details given; binding is through the mannose phosphonate moiety of the conjugate
T2 construct: also called mannose-6-phosphate receptor; M6P receptor

[3] = biological target: T3, Purified recombinant full length human PCSK9 with C-terminal biotinylated Avitag (human, UniProt Q8NBP7 31-692, biotin on the C-terminal Avitag); test: SPR, ProteOn XPR36; biotinylated human PCSK9 on NeutrAvidin NLC chip
T3 construct: also called hPCSK9; proprotein convertase subtilisin/kexin type 9; not shown: C-terminal biotinylated Avitag
Procedure: SPR was used to obtain the binding data for PCSK9 receptor ligand compound (C5), either alone or as part of the bifunctional compounds (BFC1), respectively.
as §1, with “Purified recombinant full length human PCSK9” for “Purified FHR3”, “Biotinylated human PCSK9” for “Biotinylated FHR3”, “bifunctional compound (BFC1)” for “bifunctional compounds (BFC13), (BFC14), (BFC15), (BFC16)”, “or compound (C₅),” for “or (BFC17), or compounds (C12), (C13), (C14), (C15) or (C16),”, “s, PCSK9 protein” for “s, FHR3”

[4] = biological target: T2, M6PR; test: SPR, no details given; binding is through the mannose-6-phosphate moiety of the conjugate

T3 sequence (Q8NBP7 31-692): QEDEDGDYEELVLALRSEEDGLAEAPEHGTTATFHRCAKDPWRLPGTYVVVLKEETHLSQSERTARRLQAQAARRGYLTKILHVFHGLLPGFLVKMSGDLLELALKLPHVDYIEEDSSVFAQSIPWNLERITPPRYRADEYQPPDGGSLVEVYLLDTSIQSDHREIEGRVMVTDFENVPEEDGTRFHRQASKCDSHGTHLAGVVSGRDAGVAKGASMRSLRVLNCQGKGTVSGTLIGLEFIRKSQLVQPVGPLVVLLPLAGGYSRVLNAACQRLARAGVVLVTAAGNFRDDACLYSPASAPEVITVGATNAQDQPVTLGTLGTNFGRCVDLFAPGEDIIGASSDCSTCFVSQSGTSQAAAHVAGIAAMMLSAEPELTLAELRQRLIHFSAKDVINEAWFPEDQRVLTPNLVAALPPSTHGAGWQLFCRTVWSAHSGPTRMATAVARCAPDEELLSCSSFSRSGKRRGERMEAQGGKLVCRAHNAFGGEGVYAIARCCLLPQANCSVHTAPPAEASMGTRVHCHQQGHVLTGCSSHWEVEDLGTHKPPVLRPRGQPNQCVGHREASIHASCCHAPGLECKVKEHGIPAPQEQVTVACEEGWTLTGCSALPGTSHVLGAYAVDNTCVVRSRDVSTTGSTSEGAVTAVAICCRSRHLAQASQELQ

Binder | Kd [1] [nM] | other results
{CH2CO}-FR[NMeF]SVNYKRS[Tic]N[NMeF]CG-NH2 (thioether N-14; SMILES CC(C)[C@@H]1NC(=O)[C@H](CO)NC(=O)[C@H](Cc2ccccc2)N(C)C(=O)[C@H](CCCNC(=N)N)NC(=O)[C@H](Cc2ccccc2)NC(=O)CSC[C@@H](C(=O)NCC(N)=O)NC(=O)[C@H](Cc2ccccc2)N(C)C(=O)[C@H](CC(N)=O)NC(=O)[C@@H]2Cc3ccccc3CN2C(=O)[C@H](CO)NC(=O)[C@H](CCCNC(=N)N)NC(=O)[C@H](CCCCN)NC(=O)[C@H](Cc2ccc(O)cc2)NC(=O)[C@H](CC(N)=O)NC1=O, Synthetic cyclic peptide; also called FHR3 receptor ligand compound (C14)) [Cyclic peptide compound (C14)] | 162 | –
{CH2CO}-FK([dPEG9 diacid-tri‑GalNAc ASGPR ligand])[NMeA]SLHW[NMeA]RPDRCG-NH2 (other, thioether N-13; reading uncertain) [Bifunctional compound (BFC-14)] | 80 | –
{CH2CO}-FVPTT[Bip][NMeA][Bip][NMeA]EAPCGK([Lys(4-oxopentanoyl)-int‑CC7])-NH2 (other, thioether N-13; not fully specified; also: further groups not given here, BFC-8 and BFC-9 come from the same reaction of int-DD6 with int-CC7) [Bifunctional compound (BFC-8)] | – | Kd [2]: 480 nM
{CH2CO}-FK[NMeA]SLHW[NMeA]RPDRCG-NH2 (thioether N-13; SMILES CC(C)C[C@@H]1NC(=O)[C@H](CO)NC(=O)[C@H](C)N(C)C(=O)[C@H](CCCCN)NC(=O)[C@H](Cc2ccccc2)NC(=O)CSC[C@@H](C(=O)NCC(N)=O)NC(=O)[C@H](CCCNC(=N)N)NC(=O)[C@H](CC(=O)O)NC(=O)[C@@H]2CCCN2C(=O)[C@H](CCCNC(=N)N)NC(=O)[C@H](C)N(C)C(=O)[C@H](Cc2c[nH]c3ccccc23)NC(=O)[C@H](Cc2c[nH]cn2)NC1=O, Synthetic cyclic peptide; also called FHR3 receptor ligand compound (C13)) [Cyclic peptide compound (C13)] | 48 | –
{CH2CO}-FR[NMeF]SKNY[Sar]RD[Tic]N[NMeF]CG-NH2 (thioether N-14; also: classes: D-residues, Synthetic cyclic peptide with non-natural residues; also called FHR3 receptor ligand compound (C12)) [Cyclic peptide compound (C12)] | 8 | –
{CH2CO}-FR[NMeF]SVNY[Sar]RK([dPEG9 diacid-tri‑GalNAc ASGPR ligand])[Tic]N[NMeF]CG-NH2 (other, thioether N-14; reading uncertain) [Bifunctional compound (BFC-17)] | 55 | –
{CH2CO}-FVPTT[Bip][NMeA][Bip][NMeA]EAPCGK(4‑oxopentanoyl)-NH2 (thioether N-13, also called PCSK9 ligand (C5); PCSK9 receptor ligand compound (C5)) [Cyclic peptide (C5)] | – | Kd [3]: 1.2 nM
{CH2CO}-FVPTT[Bip][NMeA][Bip][NMeA]EAPCGK([4‑formylbenzoyl-int‑CC6])-NH2 (other, thioether N-13; reading uncertain; also: 4-formylbenzoyl joined to int-CC6 as oxime) [Bifunctional compound (BFC-2)] | – | Kd [3]: 9.2 nM; Kd [4]: 7.19 nM
{CH2CO}-FR[NMeF]SVNY[Sar]RK[Tic]N[NMeF]CG-NH2 (thioether N-14; SMILES CC(C)[C@@H]1NC(=O)[C@H](CO)NC(=O)[C@H](Cc2ccccc2)N(C)C(=O)[C@H](CCCNC(=N)N)NC(=O)[C@H](Cc2ccccc2)NC(=O)CSC[C@@H](C(=O)NCC(N)=O)NC(=O)[C@H](Cc2ccccc2)N(C)C(=O)[C@H](CC(N)=O)NC(=O)[C@@H]2Cc3ccccc3CN2C(=O)[C@H](CCCCN)NC(=O)[C@H](CCCNC(=N)N)NC(=O)CN(C)C(=O)[C@H](Cc2ccc(O)cc2)NC(=O)[C@H](CC(N)=O)NC1=O, Synthetic cyclic peptide; also called FHR3 receptor ligand compound (C16)) [Cyclic peptide compound (C16)] | 13 | –
{CH2CO}-F[NMeF][NMeA]SLHW[NMeA]RKDRCG-NH2 (thioether N-13, also called FHR3 receptor ligand compound (C15)) [Cyclic peptide compound (C15)] | 15 | –
{CH2CO}-FVPTT[Bip][NMeA][Bip][NMeA]EAPCGK-NH2 (other, thioether N-13; not fully specified (residue 15); also: int-DD2 linker joined by two oximes to int-CC7) [Bifunctional compound (BFC-4)] | – | Kd [3]: 4.1 nM; Kd [2]: 110 nM
{CH2CO}-FVPTT[Bip][NMeA][Bip][NMeA]EAPCGK([Lys(4-oxopentanoyl)-int‑CC7])-NH2 (other, thioether N-13; not fully specified; also: further groups not given here, BFC-8 and BFC-9 come from the same reaction of int-DD6 with int-CC7) [Bifunctional compound (BFC-9)] | – | Kd [2]: 170 nM
